Results: the supplement of paper PMC9170038

System: MS2 coat protein
Assay: apparent KD of MS2 coat protein; designed switch direction (-1 OFF switch, 1 ON switch): -1; higher = weaker reporter binding
Method in brief: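 RNA switches sharing common flanks were transcribed by stalled E. coli RNA polymerase on Illumina chips. A doubling series of SNAP-549-labelled MS2 coat protein, from 0.7 or 1.5 nM to 3 µM, was applied in Tris-HCl pH 7.5 buffer with KCl, MgCl2, BSA, DTT, tRNA and Tween-20. Each step lasted 0.8–1.5 h at the bottom of the series and 10–20 min at the top. Normalised cluster fluorescence was curve-fitted, giving apparent KD as the per-design median over clusters.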

[1] = input ligand: microRNA oligo, concentration not stated
[2] = Eterna round: R95, input ligand: microRNA oligo, concentration not stated

| Sequence | apparent KD of MS2 coat protein (input ligand: FMN 200 uM) [nM] | apparent KD of MS2 coat protein (input ligand: none) [nM] | apparent KD of MS2 coat protein [2] [nM] | other results |
| --- | --- | --- | --- | --- |
| UGUUGUCGCGUAGGAUAUGAGGAUCACCCAUAUACAGGAUAUGAAAAGAAGGGUCUGAGGAUCACCCAGAAGGACGGGACAACU [pwkr exNG2 2xF5 2xFMN.28] (Eterna round: R96, puzzle: Exclusion NG 2) | 1390 | 116 | – | apparent KD of MS2 coat protein [1]: 94.9 nM |
| ACAUGAGGAUCACCCAUGUACAGGGUUUAGCCUCAUUGUUUGAAGGAUAUACUCAGUUAGUUGUUGUAGAAGGUCACCUUUUAU [JR_ExcNG3_Sub003] (Eterna round: R96, puzzle: Exclusion NG 3) | 3450 | 1360 | – | apparent KD of MS2 coat protein [1]: 1730 nM |
| CUUUAGUGAGGAUAUCAGUAGUAAUACAAUAGUAUUACUACUGAGAAGGCACAUGAGGAUCACCCAUGUUCUUC [Mat - Exclusion 4 - Mod of Omei - D77] (puzzle: Exclusion 4) | – | – | 18.8 | – |
| GGUCGUCAAGUCAGGAUAUCGUUUGGUCGGUGUGACGAGAAGGGACAUGAGGAUCACCCAUGUCGUCUCAUCAG [Ex4 #29] (Eterna round: R97, puzzle: Brourd's mod of Exclusion 4) | 31 | 30.8 | – | – |
| AGUUGGCGAGGAUAUACAUGAGGAUCACCCAUGUGGGAGAUACUAGUGAGGUCGAUUAGUAGAAGGCGCUGACA [Mat X3R4 m8] (Eterna round: R97, puzzle: Exclusion 3) | 566 | 209 | – | – |
| GCAGCGUAUGUAGGAUAUCGGUCAGUUUCUGAUCGAGAAGGACAUGAGGAUCACCCAUGUAUUAUCAUGCGUGAGCAUGGCUGC [JL ENG1 3.71] (Eterna round: R96, puzzle: Exclusion NG 1) | 499 | 152 | – | apparent KD of MS2 coat protein [1]: 115 nM |
| GUUGAUGUAGGAUAUACAUGAGGAUCACCCAUGUUGGUGCCCUAACCUAUUGGUGUACGUAGAAGGGCGGACUC [Eternabot (L2) Solution 96] (Eterna round: R97, puzzle: Exclusion 3) | 103 | 95.2 | – | – |
| GGUGCUGGCGCGUCGGUGUUGGUGCAAUAAGCUUGUGAAACAUGAGGAUCACCCAUGUCCUCAUAAGCUCGUCUUAU [salish99_TOv2_r2_086] (Eterna round: R96, puzzle: Sensor v3, turn-off variant 2) | 13.7 | 17.7 | – | apparent KD of MS2 coat protein [1]: 334 nM |
| UGGCAAGUAGGAUAUUGGGUGUGGGACAUGAGGAUCACCCAUGUGAUCACUCAAUCUCUCCGAGAAGGGCUAAGAA [Araes] (puzzle: Exclusion 5) | – | – | 14 | – |
| CUAGUCCGAGGAUAUAUUAAGUGAUACAUGAGGAUCACCCAUGUAAUUUAAUGGAAAUAAAUAGAAGGCGGACUAG [Mat - Exclusion 5 - JL mod - D52] (puzzle: Exclusion 5) | – | – | 46.2 | apparent KD of MS2 coat protein (Eterna round: R95, input ligand: FMN 200 uM): 44.7 nM; apparent KD of MS2 coat protein (Eterna round: R95, input ligand: none): 53.3 nM |
| UUAUACGUUGAGGAUAUGUCAGUUAGUAUAUUUACAGAAGGCGAUACAUGAGGAUCACCCAUGUUUAUGGGCAU [Ex-6 Malc#3] (puzzle: Exclusion 6) | – | – | 127 | – |
| ACUAGAUGAGGAUAUGCAUAUUUUCGUGUUCUUCUAGGUUAACAUGAGGAUCACCCAUGUAGAAGGCGUCUAUC [Exclusion 2 - 25] (puzzle: Exclusion 2) | – | – | 21.6 | – |
| AGUUAUGCAGGAUAUUGCGGGCCAGACAUGAGGAUCACCCAUGUGUGGGAGUCCUGCGCGCGAGAAGGGCAGACAA [EX5 B.22] (Eterna round: R97, puzzle: Exclusion 5) | 28.9 | 20.4 | – | – |
| CUGUUUUCCGCAGGAUAUGCUCCUCCAUUAUUUGCAGAAGGGCGUUGAACAUGAGGAUCACCCAUGUAUGGAAAUGACUAUUGC [JR_ExcNG1_Sub069] (Eterna round: R96, puzzle: Exclusion NG 1) | 19.5 | 16.5 | – | apparent KD of MS2 coat protein [1]: 11.2 nM |
| GCAGGAUAAGUGAGGAUAUACCUCUGGAUACAGAGGUAGAAGGUACAUGAGGAUCACCCAUGUCUAUAACCUGC [Fiskers BMX 4 - 80] (puzzle: Brourd's mod of Exclusion 4) | – | – | 12.9 | – |
| AGCCACAGAGGAUAUACAUACAUCCAGUAGUAGAGUCUACUACAUGAGGAUCACCCAUGUAGAAGGCUGUGGCA [Omei Ex2 BD B16] (Eterna round: R97, puzzle: Exclusion 2) | 419 | 37.1 | – | – |
| GCAGGUUAAGUCAGGAUAUACCUAUGGAUACAUAGGUAGAAGGGACAUGAGGAUCACCCAUGUGUCUCGCCUGC [Fiskers BMX 4 - 70] (puzzle: Brourd's mod of Exclusion 4) | – | – | 62.7 | – |
| CUAGUAUAUCAGGAUAUGAUAUUGUGUAGUAUAUCAGAAGGGAUGACAUGAGGAUCACCCAUGUUAUGGGAUGA [JR_Ex6_Sub048] (Eterna round: R97, puzzle: Exclusion 6) | 273 | 121 | – | – |
| UUCUACAAGCUGAGAUCCUACAUGAGGAUCACCCAUGUGGUCCGGAACAUUCUGUCACCGGAUCUUGCUCGUCUUGU [salish99_S_TOV1_R5_104] (Eterna round: R97, puzzle: Sensor, turn-off variant 1) | 41.9 | 48.4 | – | – |
| AGCCUAGCAGGAUAUGCCCGGGAUAACAUGAGGAUCACCCAUGUGACUGAUUGAUAUCUUGCAGAAGGGCUAGGGA [JL-EX5-4.06 ViennaUCT mod] (Eterna round: R97, puzzle: Exclusion 5) | 187 | 25.5 | – | – |
| AGCUAGAUAGGAUAUGCCCGAGAUAACAUGAGGAUCACCCAUGUGACCGAAUCUAAUCUAGCAGAAGGGUUUAGGA [Mod of ViennaUCT 16 - Jieux - Exclusion 5] (Eterna round: R97, puzzle: Exclusion 5) | 15.4 | 15.1 | – | – |
| GGAUCGAAUGUGAGGAUAUGCAGGUCCUUGGAUCUGCAGAAGGCACAUGAGGAUCACCCAUGUGAUCAAGAUCC [Mat - Exclusion 4 - Eli Mod - D48] (Eterna round: R97, puzzle: Brourd's mod of Exclusion 4) | 63 | 772 | – | – |
| GAAAAGGCAGAGGAUAUUUCAGAUCAAAGCUGCAAAGAAGGCUGCACAUGAGGAUCACCCAUGUGGUCUUAAAA [Mod of Quesina 5 - Jieux - Exclusion 6] (Eterna round: R97, puzzle: Exclusion 6) | 176 | 18.4 | – | – |
| GUGUAGUCAGGAUAUACAUAGGAAGAGAAGAGAAGAUAAGUACAUGAGGAUCACCCAUGUAGAAGGGACAGUGU [Excluse me!! 7 - Jieux - Exclusion 2] (puzzle: Exclusion 2) | – | – | 32.1 | – |
| GGAGCGGAAGGAUAUGCUGCGGGAUUGAAUGGAAAGAAAAUACAUGAGGAUCACCCAUGUAGAAGGUCCGUGAA [Tiquxe] (puzzle: Exclusion 2) | – | – | 17 | – |
| AUAAUGUGAGGAUAUCAGUCGACUAGCCUCGGCUAGUCGACUGAGAAGGCACAUGAGGAUCACCCAUGUAGAUC [E4/17-A2] (Eterna round: R97, puzzle: Exclusion 4) | 75.8 | 825 | – | – |
| CGAGUGUAAGGAUAUUCGGCACCAGAGAACGAUCUGGCGUAGAAGAAGGUACAUGAGGAUCACCCAUGUGGUUA [Atonte] (puzzle: Exclusion 4) | – | – | 114 | – |
